Measured values as given in article PMC8563947 (Scientific Reports, 2021).
Values belong to the binder of their own block, whether it stands above or below them.

How the values were obtained:
[1] = biological target: T1, green fluorescent protein (Aequorea victoria (assumed; GFP variant …, UniProt P42212 = GFP); assay: SPR; Biacore T-200, multicycle; 265-274 RU of recombinant GFP immobilised on CM5 chip; Nbs flowed in five dilutions; HBS-EP+ buffer, 25 °C, 30 μL/min; settings: both partners purified
T1 construct: green fluorescent protein (GFP, 27 kDa); the GFP construct may be there; also called GFP; recombinant GFP; source: E. coli BL21 (DE3), purified (Ni-NTA agarose)

[2] = biological target: T1, green fluorescent protein; assay: as above; settings: both partners purified; remark: listed apart in the source

- Kd [1]: 16.4 nM
- koff [1]: 0.0759 s⁻¹
- kon [1]: 4.62e+06 M⁻¹ s⁻¹
B1: anti-GFP mutant nanobody Y37A without peptide barcode (VHH)
VHH: QVQLVESGGALVQPGGSLRLSCAASGFPVNRYSMRWARQAPGKEREWVAGMSSAGDRSSYEDSVKGRFTISRDDARNTVYLQMNSLKPEDTAVYYCNVNVGFEYWGQGTQVTVSS
notes: as the VHH chain of m2 with the stated change; source: P. pastoris, purified (Ni-NTA agarose)

- Kd [2]: 0.02 nM
- koff [2]: 6.72e-05 s⁻¹
- kon [2]: 3.42e+06 M⁻¹ s⁻¹
B2: anti-GFP mutant nanobody R57A without peptide barcode (VHH)
VHH: QVQLVESGGALVQPGGSLRLSCAASGFPVNRYSMRWYRQAPGKEREWVAGMSSAGDASSYEDSVKGRFTISRDDARNTVYLQMNSLKPEDTAVYYCNVNVGFEYWGQGTQVTVSS
notes: as the VHH chain of m2 with the stated change; source: Pichia pastoris GS115, culture medium, purified (His SpinTrap)

- binding result [1]: no binding
B3: anti-GFP mutant nanobody E103A without peptide barcode (VHH)
VHH: QVQLVESGGALVQPGGSLRLSCAASGFPVNRYSMRWYRQAPGKEREWVAGMSSAGDRSSYEDSVKGRFTISRDDARNTVYLQMNSLKPEDTAVYYCNVNVGFAYWGQGTQVTVSS
notes: as for B1

- Kd [2]: 0.121 nM
- koff [2]: 0.000628 s⁻¹
- kon [2]: 5.2e+06 M⁻¹ s⁻¹
B4: anti-GFP mutant nanobody F102A without peptide barcode (VHH)
VHH: QVQLVESGGALVQPGGSLRLSCAASGFPVNRYSMRWYRQAPGKEREWVAGMSSAGDRSSYEDSVKGRFTISRDDARNTVYLQMNSLKPEDTAVYYCNVNVGAEYWGQGTQVTVSS
notes: as for B2

- binding result [1]: no binding
B5: anti-GFP mutant nanobody G50A without peptide barcode (VHH)
VHH: QVQLVESGGALVQPGGSLRLSCAASGFPVNRYSMRWYRQAPGKEREWVAAMSSAGDRSSYEDSVKGRFTISRDDARNTVYLQMNSLKPEDTAVYYCNVNVGFEYWGQGTQVTVSS
notes: as for B1

- binding result [1]: no binding
B6: anti-GFP mutant nanobody R35A without peptide barcode (VHH)
VHH: QVQLVESGGALVQPGGSLRLSCAASGFPVNRYSMAWYRQAPGKEREWVAGMSSAGDRSSYEDSVKGRFTISRDDARNTVYLQMNSLKPEDTAVYYCNVNVGFEYWGQGTQVTVSS
notes: as for B1

- Kd [1]: 0.722 nM
- koff [1]: 0.00606 s⁻¹
- kon [1]: 8.39e+06 M⁻¹ s⁻¹
B7: anti-GFP mutant nanobody W47A without peptide barcode (VHH)
VHH: QVQLVESGGALVQPGGSLRLSCAASGFPVNRYSMRWYRQAPGKEREAVAGMSSAGDRSSYEDSVKGRFTISRDDARNTVYLQMNSLKPEDTAVYYCNVNVGFEYWGQGTQVTVSS
notes: as for B1
